# From paper doi:10.1101/2021.04.01.438122
# Target: human Angiotensin Converting Enzyme 2 (amino acids 19-615) fused to human IgG Fc (human) (UniProt Q9BYF1)
# Test: SPR
substance,measurement,value
SARS-CoV-2 receptor binding domain (RBD amino acids 330-532) with the Y489R mutation (domain or fragment),reduction of binding against RBD-WT,94%
